# Measurements from patent US20030203372A1, “Analysis method” (priority 2000, published 2003).
# B1: p1E4 (nucleic acid, listed as Homo Sapiens)
# DNA: AATTATATATTACATGTTTATTAAGAGCACAACTTTTATGTAAAATTTACATTTAATGAAAAAAATCAAAAATATTTACAAAATCTTGGAAGACAGATGTGCATTGTTCTAATTACAATCCAAAGTAGTAAATAACAATCCTTTAAAACTCACATTTATTAGAGTTGTGTTTACAAATTCTTGGTTAAAGAGGCAGCTACAAAGTTTACCACTATATATAAGCAAGAACCAGCTTGCTAGGTACATTTCCCATTGAAAATCTACTGGTCTCTTTTACACCATTAGTGGATTTTTAAATGGAAAAAAAAAATCAATATAAACTCATATGGCTTCAAAATTGTA
# modifications: EST array clone
# Tests used:
# [1] = system: human breast and ovary tumors; assay: Custom gene array, breast and ovary tumors versus normal adjacent tissue; conditions: Table 19
# Method in brief: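 Values are per-gene relative to that gene's median across the series, after per-chip normalisation for labelling and hybridization efficiency. Samples: breast and ovary tumors with normal tissue from 5 patients of varied diagnoses, mostly from the same individual (one age-matched separate donor), compared within patient.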
# [2] = system: primary human cell cultures (11 cell types); assay: Custom gene array, 11 human cell types in normoxia or hypoxia for 6 hr and 18 hr; format: cell-based;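 for mRNA expression level, #1 HY 18 hr: cell type #1 is adipocyte from subcutaneous adult adipose tissue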;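 for mRNA expression level, #1 HY 6 hr: cell type #1 is adipocyte from subcutaneous adult adipose tissue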;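 for mRNA expression level, #1 NO: cell type #1 is adipocyte from subcutaneous adult adipose tissue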;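 for mRNA expression level, #2 HY 18 hr: cell type #2 is fetal cardiomyocyte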;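 for mRNA expression level, #2 HY 6 hr: cell type #2 is fetal cardiomyocyte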;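 for mRNA expression level, #2 NO: cell type #2 is fetal cardiomyocyte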;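 for mRNA expression level, #3 HY 6 hr: cell type #3 is human umbilical vein endothelial cells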;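 for mRNA expression level, #3 NO: cell type #3 is human umbilical vein endothelial cells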;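 for mRNA expression level, #4 HY 18 hr: cell type #4 is adult dermal fibroblast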;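 for mRNA expression level, #4 HY 6 hr: cell type #4 is adult dermal fibroblast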;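 for mRNA expression level, #4 NO: cell type #4 is adult dermal fibroblast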;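 for mRNA expression level, #5 HY 6 hr: cell type #5 is adult hepatocyte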;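 for mRNA expression level, #5 NO: cell type #5 is adult hepatocyte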;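 for mRNA expression level, #6 HY 6 hr: cell type #6 is blood-derived macrophage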;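 for mRNA expression level, #6 NO: cell type #6 is blood-derived macrophage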
# Method in brief: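 Values are each gene's expression relative to its median over all cell types and conditions, after per-array normalisation to control genes and merging of replicate arrays. Cells were 11 human types, mostly unmodified primary cultures, kept in normoxia or exposed to hypoxia for 6 hr or 18 hr.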
# human macrophages = assay: Custom gene array, macrophages with no cytokines, IL-10 or LPS + IFN, in normoxia and hypoxia; format: cell-based; conditions: Table 16, referenced to median of the gene over 6 conditions
# Method in brief: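 Cultured macrophages were left untreated or given IL-10 or LPS + IFN, each at 100 ng/ml final, for 6 hr under normoxia or hypoxia (0.1% oxygen). Six conditions in total.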
molecule,measurement,setting,value
B1,"gene expression level on custom gene array, Breast nor H","[1]; breast, normal adjacent tissue, patient H",1.00
same,"gene expression level on custom gene array, Breast nor K","[1]; breast, normal adjacent tissue, patient K",1.06
same,"gene expression level on custom gene array, Breast tum H","[1]; breast, tumor tissue, patient H",0.69
same,"gene expression level on custom gene array, Breast tum K","[1]; breast, tumor tissue, patient K",0.46
same,"gene expression level on custom gene array, Ovary nor E","[1]; ovary, normal adjacent tissue, patient E",1.30
same,"gene expression level on custom gene array, Ovary nor F","[1]; ovary, normal adjacent tissue, patient F",0.88
same,"gene expression level on custom gene array, Ovary nor G","[1]; ovary, normal adjacent tissue, patient G",0.70
same,"gene expression level on custom gene array, Ovary tum E","[1]; ovary, tumor tissue, patient E",1.67
same,"gene expression level on custom gene array, Ovary tum F","[1]; ovary, tumor tissue, patient F",0.65
same,"gene expression level on custom gene array, Ovary tum G","[1]; ovary, tumor tissue, patient G",0.17
same,"mRNA expression level, #1 HY 6 hr","[2]; cell type #1, hypoxia 6 hr",0.51
same,"mRNA expression level, #1 HY 18 hr","[2]; cell type #1, hypoxia 18 hr",0.79
same,"mRNA expression level, #1 NO","[2]; cell type #1, normoxia",0.65
same,"mRNA expression level, #2 HY 6 hr","[2]; cell type #2, hypoxia 6 hr",1.24
same,"mRNA expression level, #2 HY 18 hr","[2]; cell type #2, hypoxia 18 hr",1.18
same,"mRNA expression level, #2 NO","[2]; cell type #2, normoxia",1.06
same,"mRNA expression level, #3 HY 6 hr","[2]; cell type #3, hypoxia 6 hr",1.57
same,"mRNA expression level, #3 HY 18 hr","[2]; cell type #3, hypoxia 18 hr",1.70
same,"mRNA expression level, #3 NO","[2]; cell type #3, normoxia",1.59
same,"mRNA expression level, #4 HY 6 hr","[2]; cell type #4, hypoxia 6 hr",0.76
same,"mRNA expression level, #4 HY 18 hr","[2]; cell type #4, hypoxia 18 hr",0.91
same,"mRNA expression level, #4 NO","[2]; cell type #4, normoxia",0.80
same,"mRNA expression level, #5 HY 6 hr","[2]; cell type #5, hypoxia 6 hr",0.39
same,"mRNA expression level, #5 NO","[2]; cell type #5, normoxia",0.34
same,"mRNA expression level, #6 HY 6 hr","[2]; cell type #6, hypoxia 6 hr",1.13
same,#6 HY 18 hr (mRNA expression level),"[2]; cell type #6, hypoxia 18 hr",1.21
same,"mRNA expression level, #6 NO","[2]; cell type #6, normoxia",0.97
same,#7 HY 6 hr (mRNA expression level),"[2]; cell type #7, hypoxia 6 hr",1.17
same,#7 HY 18 hr (mRNA expression level),"[2]; cell type #7, hypoxia 18 hr",0.82
same,#7 NO (mRNA expression level),"[2]; cell type #7, normoxia",1.65
same,#8 HY 6 hr (mRNA expression level),"[2]; cell type #8, hypoxia 6 hr",1.28
same,#8 HY 18 hr (mRNA expression level),"[2]; cell type #8, hypoxia 18 hr",1.71
same,#8 NO (mRNA expression level),"[2]; cell type #8, normoxia",0.74
same,#9 HY 6 hr (mRNA expression level),"[2]; cell type #9, hypoxia 6 hr",0.97
same,#9 HY 18 hr (mRNA expression level),"[2]; cell type #9, hypoxia 18 hr",0.93
same,#9 NO (mRNA expression level),"[2]; cell type #9, normoxia",0.95
same,#10 HY 6 hr (mRNA expression level),"[2]; cell type #10, hypoxia 6 hr",1.35
same,#10 HY 18 hr (mRNA expression level),"[2]; cell type #10, hypoxia 18 hr",1.44
same,#10 NO (mRNA expression level),"[2]; cell type #10, normoxia",0.78
same,#11 HY 6 hr (mRNA expression level),"[2]; cell type #11, hypoxia 6 hr",1.48
same,#11 HY 18 hr (mRNA expression level),"[2]; cell type #11, hypoxia 18 hr",1.35
same,#11 NO (mRNA expression level),"[2]; cell type #11, normoxia",1.30
same,HIGHEST FOLD CHANGE IN HYPOXIA (hr hypoxia + cell type),"[2]; hypoxia/normoxia induction ratio, 18 hr monocyte",2.31 (18 hr monocyte) fold
same,mRNA EXPRESSION (experimental condition) #1,human macrophages; #1 no cytokines/normoxia,1.22
same,mRNA EXPRESSION (experimental condition) #2,human macrophages; #2 no cytokines/hypoxia,1.13
same,mRNA EXPRESSION (experimental condition) #3,human macrophages; #3 IL-10/normoxia,1.09
same,mRNA EXPRESSION (experimental condition) #4,human macrophages; #4 IL-10/hypoxia,0.96
same,mRNA EXPRESSION (experimental condition) #5,human macrophages; #5 LPS/IFN/normoxia,0.40
same,mRNA EXPRESSION (experimental condition) #6,human macrophages; #6 LPS/IFN/hypoxia,0.40
